These are literature values, as cited in paper PMC8136485, “Were Ancestral Proteins Less Specific?” (Molecular Biology and Evolution, 2021).

pKd: −log10 of the molar value.

The data set deals with NCX1 peptide (Homo sapiens) (UniProt P32418). The settings on record: cited from earlier work.
Chain of NCX1 peptide (Homo sapiens) (P32418 36-973): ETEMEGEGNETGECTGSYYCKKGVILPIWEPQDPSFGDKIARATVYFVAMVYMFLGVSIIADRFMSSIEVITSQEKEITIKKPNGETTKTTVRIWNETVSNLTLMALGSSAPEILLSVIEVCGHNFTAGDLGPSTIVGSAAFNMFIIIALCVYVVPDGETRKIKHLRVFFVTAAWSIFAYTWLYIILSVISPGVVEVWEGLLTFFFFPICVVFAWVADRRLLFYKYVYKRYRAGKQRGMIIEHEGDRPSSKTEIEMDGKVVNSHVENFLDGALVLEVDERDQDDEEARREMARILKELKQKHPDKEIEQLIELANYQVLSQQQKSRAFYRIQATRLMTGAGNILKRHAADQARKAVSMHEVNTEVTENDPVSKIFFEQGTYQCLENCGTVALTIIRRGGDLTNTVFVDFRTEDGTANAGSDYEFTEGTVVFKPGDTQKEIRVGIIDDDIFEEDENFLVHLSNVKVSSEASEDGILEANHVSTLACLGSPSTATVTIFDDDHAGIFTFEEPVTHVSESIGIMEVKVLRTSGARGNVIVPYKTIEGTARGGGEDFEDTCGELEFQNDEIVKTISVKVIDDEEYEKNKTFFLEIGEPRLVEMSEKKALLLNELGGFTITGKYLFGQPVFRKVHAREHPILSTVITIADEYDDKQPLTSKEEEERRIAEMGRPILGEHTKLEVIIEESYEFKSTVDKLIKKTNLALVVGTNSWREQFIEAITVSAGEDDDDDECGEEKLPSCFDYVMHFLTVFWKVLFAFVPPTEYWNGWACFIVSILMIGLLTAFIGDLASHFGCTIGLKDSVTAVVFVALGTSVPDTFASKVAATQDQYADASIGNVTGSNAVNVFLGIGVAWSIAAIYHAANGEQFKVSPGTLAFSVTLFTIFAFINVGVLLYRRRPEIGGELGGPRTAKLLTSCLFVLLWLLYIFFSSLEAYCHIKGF

Chain of hA5 (S100A5) (P33763 whole entry): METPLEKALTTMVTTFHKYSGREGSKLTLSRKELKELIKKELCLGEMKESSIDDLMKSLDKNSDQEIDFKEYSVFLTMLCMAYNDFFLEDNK

On to hA5 (S100A5) (from UniProt P33763), for which the pKd is 4.74.

Broadly, the pKd is −log10 of the Kd, conventionally taken in molar units.
